Tests used:
Test in all cases: fluorescence anisotropy
BLM642-1290 R979A = BLM642-1290 R979A (UniProt P54132 642-1290, R979A)
BLM642-1290 H798A = BLM642-1290 H798A (UniProt P54132 642-1290, H798A)
BLM642-1290 R959A = BLM642-1290 R959A (UniProt P54132 642-1290, R959A)
BLM642-1290 R982A = BLM642-1290 R982A (UniProt P54132 642-1290, R982A)
BLM642-1290 Q975V = BLM642-1290 Q975V (UniProt P54132 642-1290, Q975V)
BLM642-1290 R979/982A = BLM642-1290 R979/982A (UniProt P54132 642-1290, R979A;R982A)
BLM642-1290 = BLM642-1290 (UniProt P54132 642-1290)
BLM642-1290, sequence (P54132 642-1290): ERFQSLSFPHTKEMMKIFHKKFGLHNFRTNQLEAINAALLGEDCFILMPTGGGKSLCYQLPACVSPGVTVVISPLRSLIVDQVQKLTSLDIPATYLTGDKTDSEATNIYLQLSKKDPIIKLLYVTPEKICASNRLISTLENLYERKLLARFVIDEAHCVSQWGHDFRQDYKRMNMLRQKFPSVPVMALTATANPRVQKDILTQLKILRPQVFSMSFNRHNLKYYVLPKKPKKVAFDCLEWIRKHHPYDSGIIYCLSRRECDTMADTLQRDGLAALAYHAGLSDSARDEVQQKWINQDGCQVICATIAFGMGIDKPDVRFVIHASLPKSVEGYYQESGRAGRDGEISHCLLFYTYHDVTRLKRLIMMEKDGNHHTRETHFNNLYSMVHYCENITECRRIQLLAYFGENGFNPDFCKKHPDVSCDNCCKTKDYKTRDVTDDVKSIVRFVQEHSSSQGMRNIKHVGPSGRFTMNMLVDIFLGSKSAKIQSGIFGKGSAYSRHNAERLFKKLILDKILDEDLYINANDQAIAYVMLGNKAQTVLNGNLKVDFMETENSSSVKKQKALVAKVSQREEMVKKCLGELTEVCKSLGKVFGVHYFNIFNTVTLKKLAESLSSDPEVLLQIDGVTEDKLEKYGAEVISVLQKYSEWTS

BLM642-1290 R979A, sequence (P54132 642-1290 R979A): as the sequence (P54132 642-1290) above, with R338A counted along it
BLM642-1290 H798A, sequence (P54132 642-1290 H798A): as the sequence (P54132 642-1290) above, with H157A counted along it
BLM642-1290 R959A, sequence (P54132 642-1290 R959A): as the sequence (P54132 642-1290) above, with R318A counted along it
BLM642-1290 Q975V, sequence (P54132 642-1290 Q975V): as the sequence (P54132 642-1290) above, with Q334V counted along it
BLM642-1290 R982A, sequence (P54132 642-1290 R982A): as the sequence (P54132 642-1290) above, with R341A counted along it
BLM642-1290 R979/982A, sequence (P54132 642-1290 R979A/R982A): as the sequence (P54132 642-1290) above, with R338A, R341A counted along it

GGGTTAGGGTTAGGGTTAGGG (ssDNA) [oligonucleotide D (21-mer)] was tested, and the Kd (BLM642-1290 R979A) was 1.91 ± 0.46 nM, the Kd (BLM642-1290 H798A) was 5.03 ± 0.55 nM and the Kd (BLM642-1290 R959A) was 4.15 ± 0.4 nM. The Kd (BLM642-1290 R982A) was 2.13 ± 0.32 nM, the Kd (BLM642-1290 Q975V) was 3.31 ± 0.4 nM and the Kd (BLM642-1290 R979/982A) was 1.32 ± 0.49 nM. For the same binder, the Kd (BLM642-1290) was 1.11 ± 0.11 nM.

Reference: PMC2094072
